Data taken from paper PMC8034803.
Read-outs that look alike come from different tables or passages of the source.

Legend:
[1] = target: PABP1 (Homo sapiens) (UniProt P11940); conditions: cited from earlier work
[2] = target: T1, PABP1 (human, UniProt P11940 1-636); assay: EMSA
[3] = target: T1, PABP1; assay: EMSA; remark: listed apart in the source
[4] = target: T1, PABP1; assay: EMSA; remark: listed apart in the source
[5] = target: WT NS1-RBD (Influenza A virus A/Udorn/307/1972 …, UniProt P03495 1-73); assay: fluorescence anisotropy
Sequence of WT NS1-RBD (P03495 1-73): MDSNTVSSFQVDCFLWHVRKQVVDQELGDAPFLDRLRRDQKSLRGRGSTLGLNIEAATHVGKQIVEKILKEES

T1 sequence (P11940 whole entry): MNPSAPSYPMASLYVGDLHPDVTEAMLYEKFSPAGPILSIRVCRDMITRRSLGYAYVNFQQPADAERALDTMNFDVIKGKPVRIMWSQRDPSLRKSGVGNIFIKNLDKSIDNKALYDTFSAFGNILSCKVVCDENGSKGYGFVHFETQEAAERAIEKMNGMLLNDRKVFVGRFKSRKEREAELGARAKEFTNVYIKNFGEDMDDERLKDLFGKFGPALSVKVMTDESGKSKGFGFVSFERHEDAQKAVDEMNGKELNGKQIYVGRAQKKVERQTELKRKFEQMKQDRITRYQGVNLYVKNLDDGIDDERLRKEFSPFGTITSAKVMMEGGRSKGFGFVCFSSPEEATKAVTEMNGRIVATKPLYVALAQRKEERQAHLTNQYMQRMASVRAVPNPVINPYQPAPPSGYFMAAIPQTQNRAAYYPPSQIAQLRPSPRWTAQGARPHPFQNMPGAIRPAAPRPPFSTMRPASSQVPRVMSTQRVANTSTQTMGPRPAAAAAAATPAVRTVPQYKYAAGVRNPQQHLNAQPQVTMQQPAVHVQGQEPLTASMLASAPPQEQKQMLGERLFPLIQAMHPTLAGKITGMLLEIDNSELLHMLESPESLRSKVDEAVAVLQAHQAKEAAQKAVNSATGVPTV
Sequence of PABP1 (Homo sapiens) (P11940 whole entry): as above

## NS1 (from UniProt Q8QPI8)
[1]
  Kd: 20 nM

## AAAAAAAAAAAAAAAAAA (ssRNA) [poly(A)18]
[2]
  binding result: binds

## GCUAUCCAGAUUCUGAUU (ssRNA) [ssCR1]
[3]
  binding result: no binding

B1: poly(A)60 (ssRNA)
RNA: AAAAAAAAAAAAAAAAAAAAAAAAAAAAAAAAAAAAAAAAAAAAAAAAAAAAAAAAAAAA
[4]
  binding result: binds

B2: dsRK1 (dsRNA)
RNA 1: CCAUCCUCUACAGGCG
RNA 2: CGCCUGUAGAGGAUGG
[5]
  Kd: 76 ± 9 nM
